Measurements taken from the Human Domainome abundance scans (Beltran et al. 2025).
± gives the uncertainty stated by the source.

B1: Ras GTPase-activating protein 1, residues 281 to 341; numbered along this chain, P20936 (parent)
chain: RRRVRAILPYTKVPDTDEISFLKGDMFIVHNELEDGWMWVTNLRTDEQGLIVEDLVEEVGR

Variants of: B1
Test: abundance fitness (aPCA) (normalised: wild type 0, dead -1); higher = more abundant; growth selection in yeast, the domain comes from the species named
Conditions: Homo sapiens

Question: Which abundance fitness does the source give for RRRVRAILPYTKVPDTDEISFLKGDMFIVHNFLEDGWMWVTNLRTDEQGLIVEDLVEEVGR here?
Answer: -0.054 ± 0.031

Question: Which abundance fitness does the source give for RRRVRAILPYTKVPDTDEISFLKGDMFIEHNELEDGWMWVTNLRTDEQGLIVEDLVEEVGR here?
Answer: -0.873 ± 0.11

Question: Which abundance fitness does the source give for RRRVRAILPYTKVPDTDEISFLKGDMFIVHNELEDGWMWVTNLRTDEQGLIVEDLVQEVGR here?
Answer: -0.083 ± 0.081

Question: Which abundance fitness does the source give for RRRVRAILPYTKVPDTDEISFLKGDMFIVHNELEDGWMWVRNLRTDEQGLIVEDLVEEVGR here?
Answer: -0.102 ± 0.03

Question: Which abundance fitness does the source give for RRRVRAILPYTKVPDTDEISFLKGDFFIVHNELEDGWMWVTNLRTDEQGLIVEDLVEEVGR here?
Answer: -0.042 ± 0.029

Question: For RRRVRAILPYTKVPDTDEISFLKGDMFIVHNELEDGWMWVTNLRTDEQGLIVEDLVEEVGE, which abundance fitness is on record?
Answer: 0.234 ± 0.16

Question: With RRRVRAILPYTKVPDTDEISFLKGDMFIVHNELEDGWMWVTNLRTDEGGLIVEDLVEEVGR as the variant, how does the abundance fitness read?
Answer: -0.375 ± 0.033

Question: With RRRVRAILPYTKVPDTDEISFLKGDMFIVHNELEDGWMWCTNLRTDEQGLIVEDLVEEVGR as the variant, how does the abundance fitness read?
Answer: -0.102 ± 0.027

Question: Which abundance fitness does the source give for RRRVRAILPYTKVPDTDEISFLKGDMFIVHNELEDGWMWVTNLRTDEQGLWVEDLVEEVGR here?
Answer: -0.826 ± 0.072

Question: For RRRVRAILPYTKVPDTDEISFLKSDMFIVHNELEDGWMWVTNLRTDEQGLIVEDLVEEVGR, which abundance fitness is on record?
Answer: -0.362 ± 0.027

Question: Which abundance fitness does the source give for RRRVRAILPYTKVPDTEEISFLKGDMFIVHNELEDGWMWVTNLRTDEQGLIVEDLVEEVGR here?
Answer: -0.006 ± 0.053

Question: For RRRVRAILPYTKVPDTDEISFLKGDMFIVHNELEDGWMWVTNYRTDEQGLIVEDLVEEVGR, which abundance fitness is on record?
Answer: -0.35 ± 0.033

Question: For RRRVRAILPYTKVPDTDEISFLKGDMFIVHNELVDGWMWVTNLRTDEQGLIVEDLVEEVGR, which abundance fitness is on record?
Answer: -0.089 ± 0.03

Question: For RRRVRAILPYTKVPCTDEISFLKGDMFIVHNELEDGWMWVTNLRTDEQGLIVEDLVEEVGR, which abundance fitness is on record?
Answer: -0.126 ± 0.029

Question: For RRRVRAILPYTKVPDTDEISFLKGDMFIVHNELEDGWMWVTALRTDEQGLIVEDLVEEVGR, which abundance fitness is on record?
Answer: -0.436 ± 0.033

Question: With RRRVRAILPYTKVPDTDEISFLKGDMFIVHNELEDDWMWVTNLRTDEQGLIVEDLVEEVGR as the variant, how does the abundance fitness read?
Answer: -0.613 ± 0.038

Question: For RRRVRAILPYTKVPDTDEISFLKGDMFIVHNELESGWMWVTNLRTDEQGLIVEDLVEEVGR, which abundance fitness is on record?
Answer: -0.103 ± 0.026

Question: Which abundance fitness does the source give for RRRVRAILPYTKVPDTDEISFLKGDMFIVHNELEDGWMWVTNLRTDEQGLIVEDLVEEVDR here?
Answer: -0.063 ± 0.057

Question: For RRRVRAILPYTKVPDTDEISFLKGDMFIVHNELEDGWKWVTNLRTDEQGLIVEDLVEEVGR, which abundance fitness is on record?
Answer: -0.414 ± 0.075

Question: For RRRVRAILPYTKVPDTDEISFLKGDMFIVHNELEDGWMWVTNLRTDEQGLGVEDLVEEVGR, which abundance fitness is on record?
Answer: -0.761 ± 0.039

Question: With RRRVRAALPYTKVPDTDEISFLKGDMFIVHNELEDGWMWVTNLRTDEQGLIVEDLVEEVGR as the variant, how does the abundance fitness read?
Answer: -0.63 ± 0.054

Question: Which abundance fitness does the source give for RRRVRAILPYTKVPDTDEISFLKGDMFIVHNELIDGWMWVTNLRTDEQGLIVEDLVEEVGR here?
Answer: -0.258 ± 0.037

Question: With RRRVRAILPYTKVPDTDEISFLKGDMFIVHNELEDGWMWVTNLRTDEQGLIVEDLVESVGR as the variant, how does the abundance fitness read?
Answer: -0.064 ± 0.026

Question: Which abundance fitness does the source give for RRRVRAILPYTKVPDTDEISFLKGDMFIVHRELEDGWMWVTNLRTDEQGLIVEDLVEEVGR here?
Answer: 0.073 ± 0.027

Question: With RRRVRAILPYTKKPDTDEISFLKGDMFIVHNELEDGWMWVTNLRTDEQGLIVEDLVEEVGR as the variant, how does the abundance fitness read?
Answer: 0.02 ± 0.072

Question: Which abundance fitness does the source give for RRRVRAILPYTKVPDTDEISFLKGDMFIVHNELEDGWMWVTNLRTDHQGLIVEDLVEEVGR here?
Answer: -0.253 ± 0.032

Question: With RRRVRAILPYTKVPDTDEISFLKGDMFIVHNELEDGWMWVTNLRTDEAGLIVEDLVEEVGR as the variant, how does the abundance fitness read?
Answer: -0.073 ± 0.031

Question: Which abundance fitness does the source give for RRRVRAILPYTKVPDTDEISFLKGDMFIVHNKLEDGWMWVTNLRTDEQGLIVEDLVEEVGR here?
Answer: 0.01 ± 0.054

Question: For RRRVRAILPYTKVPDTDEISFLKGDMFIVHNELEYGWMWVTNLRTDEQGLIVEDLVEEVGR, which abundance fitness is on record?
Answer: -0.268 ± 0.029

Question: With RRRVRHILPYTKVPDTDEISFLKGDMFIVHNELEDGWMWVTNLRTDEQGLIVEDLVEEVGR as the variant, how does the abundance fitness read?
Answer: -0.925 ± 0.034

Question: For RRGVRAILPYTKVPDTDEISFLKGDMFIVHNELEDGWMWVTNLRTDEQGLIVEDLVEEVGR, which abundance fitness is on record?
Answer: -0.383 ± 0.028

Question: Which abundance fitness does the source give for RRRVRAILPYTKVPDTDEISFLKGDMFIVHNELEDGWMWNTNLRTDEQGLIVEDLVEEVGR here?
Answer: -0.987 ± 0.061

Question: For RRRVRAILPYGKVPDTDEISFLKGDMFIVHNELEDGWMWVTNLRTDEQGLIVEDLVEEVGR, which abundance fitness is on record?
Answer: -0.416 ± 0.033

Question: Which abundance fitness does the source give for RRRVRAILPYTAVPDTDEISFLKGDMFIVHNELEDGWMWVTNLRTDEQGLIVEDLVEEVGR here?
Answer: -0.029 ± 0.032

Question: With RRRVRAILPYTKVPDTDEISFLKGDMFIVHNELEDGWMWVTNLRTDEQGLIVEDLVEEVGT as the variant, how does the abundance fitness read?
Answer: 0.092 ± 0.037

Question: Which abundance fitness does the source give for RRRVRAILPYTKVPDTDEISFLKGDMFIVHNELEDGWMWITNLRTDEQGLIVEDLVEEVGR here?
Answer: -0.829 ± 0.048

Question: With RRRVRAILPYTKVPDGDEISFLKGDMFIVHNELEDGWMWVTNLRTDEQGLIVEDLVEEVGR as the variant, how does the abundance fitness read?
Answer: -0.439 ± 0.027

Question: With RMRVRAILPYTKVPDTDEISFLKGDMFIVHNELEDGWMWVTNLRTDEQGLIVEDLVEEVGR as the variant, how does the abundance fitness read?
Answer: -0.053 ± 0.055

Question: With RRRVRAILPYTKVPDTDEISFLKGDMFIVHNELDDGWMWVTNLRTDEQGLIVEDLVEEVGR as the variant, how does the abundance fitness read?
Answer: -0.033 ± 0.034

Question: With RRRVRAILPYTKVPDTDEISFLKGDMFIVHNELEDGWMWVTNLRTDEQGLAVEDLVEEVGR as the variant, how does the abundance fitness read?
Answer: -0.481 ± 0.034

Question: With RRRVRAILPYTKVPDTDEISFLKDDMFIVHNELEDGWMWVTNLRTDEQGLIVEDLVEEVGR as the variant, how does the abundance fitness read?
Answer: -0.07 ± 0.031

Question: Which abundance fitness does the source give for RRRVRAILPYTKVPDTDEISFLKGDMFIVFNELEDGWMWVTNLRTDEQGLIVEDLVEEVGR here?
Answer: -0.39 ± 0.033

Question: Which abundance fitness does the source give for RRRVRAILPYTKVPDTDEISFLKGDMFIVHNELEDGWMWVTNLRTDEQGLIVEDLVEEEGR here?
Answer: 0.011 ± 0.053

Question: For RRRVRAILPYTKVPDTDEISFLKGDMFIVHNELEDGWMWVTNLRTDEQGLIVEDLVEEVMR, which abundance fitness is on record?
Answer: -0.289 ± 0.12
